Measurements: article PMC12057046, “Elucidation of short linear motif-based interactions of the MIT and rhodanese domains of the ubiquitin-specific protease 8” (Biology Direct, 2025)

target: T1, USP8 Rhod domain (Homo sapiens, UniProt P40818); assay: Peptide-phage display-based deep mutational scanning (DMS), USP8 Rhod domain; assay type: binding; conditions: PSSM, library USP8_DMS, days 2,3; position 7
T1 construct: USP8 Rhod (174–317) (UniProt: P40818); GST (cleaved yes); made in house; host or cells: Escherichia coli BL21-Gold (DE3)
T1 sequence (P40818 174-317): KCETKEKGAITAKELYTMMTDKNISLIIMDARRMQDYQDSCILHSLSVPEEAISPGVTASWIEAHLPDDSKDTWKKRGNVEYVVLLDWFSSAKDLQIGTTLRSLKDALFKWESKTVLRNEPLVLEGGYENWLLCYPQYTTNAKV

| Substance | enrichment_relative_to_wt at position 7 (wt G) | proportion of amino acid at position 7 (wt G) |
| --- | --- | --- |
| KIAA1614_Q5VZ46_569_584 G7E (MERVLGELSSPLRLLP; UniProt Q5VZ46 569-584, looked up, variant G7E) | 1.36 | 0.02 |
| KIAA1614_Q5VZ46_569_584 G7F (MERVLGFLSSPLRLLP; UniProt Q5VZ46 569-584, looked up, variant G7F) | 3 | 0.0448 |
| KIAA1614_Q5VZ46_569_584 G7H (MERVLGHLSSPLRLLP; UniProt Q5VZ46 569-584, looked up, variant G7H) | -7.58 | 0.00204 |
| KIAA1614_Q5VZ46_569_584 G7I (MERVLGILSSPLRLLP; peptide 569-584; UniProt Q5VZ46 569-584, looked up, variant G7I) | -2.84 | 0.00545 |
| KIAA1614_Q5VZ46_569_584 G7K (MERVLGKLSSPLRLLP; peptide 569-584; UniProt Q5VZ46 569-584, looked up, variant G7K) | -96 | 0.000161 |
| KIAA1614_Q5VZ46_569_584 G7L (MERVLGLLSSPLRLLP; UniProt Q5VZ46 569-584, looked up, variant G575L) | -3 | 0.00507 |
| KIAA1614_Q5VZ46_569_584 G7Q (MERVLGQLSSPLRLLP; UniProt Q5VZ46 569-584, looked up, variant G7Q) | 1.89 | 0.03 |
| KIAA1614_Q5VZ46_569_584 G7R (MERVLGRLSSPLRLLP; UniProt Q5VZ46 569-584, looked up, variant G7R) | -19 | 0.000822 |
| KIAA1614_Q5VZ46_569_584 G7S (MERVLGSLSSPLRLLP; UniProt Q5VZ46 569-584, looked up, variant G7S) | -1.8 | 0.0086 |
| KIAA1614_Q5VZ46_569_584 G7T (MERVLGTLSSPLRLLP; peptide 569-584; UniProt Q5VZ46 569-584, looked up, variant G7T) | 30 | 0.46 |
| KIAA1614_Q5VZ46_569_584 G7W (MERVLGWLSSPLRLLP; UniProt Q5VZ46 569-584, looked up, variant G7W) | -172 | 8.98e-5 |
| KIAA1614_Q5VZ46_569_584 G7Y (MERVLGYLSSPLRLLP; peptide 569-584; UniProt Q5VZ46 569-584, looked up, variant G7Y) | -2 | 0.00809 |

same assay, conditions: PSSM, library USP8_DMS, days 2,3; position 10

| Substance | enrichment_relative_to_wt at position 10 (wt S) | proportion of amino acid at position 10 (wt S) |
| --- | --- | --- |
| KIAA1614_Q5VZ46_569_584 S10E (MERVLGGLSEPLRLLP; UniProt Q5VZ46 569-584, looked up, variant S10E) | -77 | 0.00734 |
| KIAA1614_Q5VZ46_569_584 S10H (MERVLGGLSHPLRLLP; UniProt Q5VZ46 569-584, looked up, variant S10H) | -1.37 | 0.41 |
| KIAA1614_Q5VZ46_569_584 S10I (MERVLGGLSIPLRLLP; UniProt Q5VZ46 569-584, looked up, variant S10I) | -231 | 0.00245 |
| KIAA1614_Q5VZ46_569_584 S10V (MERVLGGLSVPLRLLP; peptide 569-584; UniProt Q5VZ46 569-584, looked up, variant S10V) | -328 | 0.00172 |

same assay, conditions: PSSM, library USP8_DMS, days 2,3; position 15

| Substance | enrichment_relative_to_wt at position 15 (wt L) | proportion of amino acid at position 15 (wt L) |
| --- | --- | --- |
| KIAA1614_Q5VZ46_569_584 L15A (MERVLGGLSSPLRLAP; UniProt Q5VZ46 569-584, looked up, variant L15A) | -207 | 0.00469 |
| KIAA1614_Q5VZ46_569_584 L15I (MERVLGGLSSPLRLIP; UniProt Q5VZ46 569-584, looked up, variant L15I) | -277 | 0.00349 |
| KIAA1614_Q5VZ46_569_584 L15N (MERVLGGLSSPLRLNP; peptide 569-584; UniProt Q5VZ46 569-584, looked up, variant L15N) | -89 | 0.0109 |
| KIAA1614_Q5VZ46_569_584 L15V (MERVLGGLSSPLRLVP; UniProt Q5VZ46 569-584, looked up, variant L15V) | -151 | 0.00642 |

same assay, conditions: ProP-PD pairs, bait USP8_Rhodanese__P40818_174_317; wild-type/mutant pair, wild type KIAA1614 569-584 GMERVLGGLSSPLRLL (wt_00013)

| Substance | hit_pair_ratio |
| --- | --- |
| KMERVLGGLSSPLRLL | 10.10 |
| LMERVLGGLSSPLRLL | 64.39 |
| MMERVLGGLSSPLRLL | 6.27 |
| NMERVLGGLSSPLRLL | 1.70 |
| RMERVLGGLSSPLRLL | 3.82 |
| VMERVLGGLSSPLRLL | 53.66 |
| WMERVLGGLSSPLRLL | 1.49 |
| YMERVLGGLSSPLRLL | 10.06 |

same assay, conditions: bait USP8_Rhodanese__P40818_174_317; wild-type/mutant pair ratio of averaged fractions; negative values where mutant fraction is higher

| Substance | hit_pair_ratio |
| --- | --- |
| PMERVLGGLSSPLRLL | 1.96 |
| QMERVLGGLSSPLRLL | -4.33 |
| SMERVLGGLSSPLRLL | -2.25 |
| TMERVLGGLSSPLRLL | -2.57 |

same assay, conditions: wild type/mutant pair; bait USP8_Rhodanese__P40818_174_317; vs hit_library_peptide_wt GLALWEAKMKQLAERA; negative where mutant fraction exceeds wild type; ProP-PD pairs (sheet S7.B)

| Substance | hit_pair_ratio |
| --- | --- |
| KLALWEAKMKQLAERA | 238.03 |
| NLALWEAKMKQLAERA | 107.46 |
| QLALWEAKMKQLAERA | 553.50 |
| RLALWEAKMKQLAERA | 1107.01 |
